The source of these data is US20260056186A1 (JIANGSU HENGRUI PHARMACEUTICALS, published 2026).

T1: IFNAR1 (human, UniProt P17181 28-557)
T1 sequence (looked up): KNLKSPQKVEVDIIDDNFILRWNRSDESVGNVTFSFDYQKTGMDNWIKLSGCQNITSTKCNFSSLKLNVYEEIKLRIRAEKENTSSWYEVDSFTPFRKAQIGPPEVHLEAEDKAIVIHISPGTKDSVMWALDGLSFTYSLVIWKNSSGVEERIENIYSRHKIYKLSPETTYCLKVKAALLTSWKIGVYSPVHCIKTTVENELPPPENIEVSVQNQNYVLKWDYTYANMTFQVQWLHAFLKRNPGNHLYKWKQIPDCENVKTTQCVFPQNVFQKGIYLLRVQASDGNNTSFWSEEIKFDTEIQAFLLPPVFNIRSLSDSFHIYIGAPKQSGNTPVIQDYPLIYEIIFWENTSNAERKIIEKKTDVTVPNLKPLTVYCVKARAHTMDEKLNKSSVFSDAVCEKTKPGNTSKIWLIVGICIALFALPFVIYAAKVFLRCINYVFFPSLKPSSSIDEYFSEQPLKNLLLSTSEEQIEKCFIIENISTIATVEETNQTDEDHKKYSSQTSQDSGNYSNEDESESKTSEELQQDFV

T2: APRIL (Acro Biosystems, Cat: APL-H52D1) (UniProt O75888 115-250, limits assumed)
T2 construct: also called ARPIL
T2 sequence (looked up): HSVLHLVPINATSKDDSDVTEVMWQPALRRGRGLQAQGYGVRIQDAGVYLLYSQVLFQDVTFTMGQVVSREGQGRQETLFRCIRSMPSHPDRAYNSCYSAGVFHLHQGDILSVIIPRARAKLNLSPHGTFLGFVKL

B1: Anifrolumab (antibody, human IgG1, kappa, V domains shown)
VH: EVQLVQSGAEVKKPGESLKISCKGSGYIFTNYWIAWVRQMPGKGLESMGIIYPGDSDIRYSPSFQGQVTISADKSITTAYLQWSSLKASDTAMYYCARHDIEGFDYWGRGTLVTVSS
VL: EIVLTQSPGTLSLSPGERATLSCRASQSVSSSFFAWYQQKPGQAPRLLIYGASSRATGIPDRLSGSGSGTDFTLTITRLEPEDFAVYYCQQYDSSAITFGQGTRLEIKR
B2: B613303 (other)
heavy: EVQLVQSGAEVKKPGESLKISCKGSGYIFTNYWIAWVRQMPGKGLESMGIIYPGDSDIRYSPSFQGQVTISADKSITTAYLQWSSLKASDTAMYYCARHDIEGFDYWGRGTLVTVSSASTKGPSVFPLAPSSKSTSGGTAALGCLVKDYFPEPVTVSWNSGALTSGVHTFPAVLQSSGLYSLSSVVTVPSSSLGTQTYICNVNHKPSNTKVDKRVEPKSCDKTHTCPPCPAPEFEGGPSVFLFPPKPKDTLMISRTPEVTCVVVDVSHEDPEVKFNWYVDGVEVHNAKTKPREEQYNSTYRVVSVLTVLHQDWLNGKEYKCKVSNKALPASIEKTISKAKGQPREPQVYTLPPSRDELTKNQVSLTCLVKGFYPSDIAVEWESNGQPENNYKTTPPVLDSDGSFFLYSKLTVDKSRWQQGNVFSCSVMHEALHNHYTQKSLSLSPGK
light: EIVLTQSPGTLSLSPGERATLSCRASQSVSSSFFAWYQQKPGQAPRLLIYGASSRATGIPDRLSGSGSGTDFTLTITRLEPEDFAVYYCQQYDSSAITFGQGTRLEIKRTVAAPSVFIFPPSDEQLKSGTASVVCLLNNFYPREAKVQWKVDNALQSGNSQESVTEQDSKDSTYSLSSTLTLSKADYEKHKVYACEVTHQGLSSPVTKSFNRGECGGGGSGGGGSSRVDQEERFPQGLWTGVAMRSCPEEQYWDPLLGTCMSCKTICNHQSQRTCAAFCRSLSCRKEQGKFYDHLLRDCISCASICGQHPKQCAYFCENKLRSPVNLPPELMLQMAGQCSQNEYFDSLLHACIPCQLRCSSNTPPLTCQRYCNASVTNSVKGTNA
notes: Fusion protein of anifrolumab and TACI-BCMA
B3: TACI-9-1-Fc (Fc fusion)
chain: STSCRKEQGKFYDHLLRDCISCASICGQHPKQCAYFCENKLDKTHTCPPCPAPEAEGAPSVFLFPPKPKDTLMISRTPEVTCVVVDVSHEDPEVKFNWYVDGVEVHNAKTKPREEQYNSTYRVVSVLTVLHQDWLNGKEYKCKVSNKALPSSIEKTISKAKGQPREPQVYTLPPSRDELTKNQVSLTCLVKGFYPSDIAVEWESNGQPENNYKTTPPVLDSDGSFFLYSKLTVDKSRWQQGNVFSCSVMHEALHNHYTQKSLSLSPGK
B4: TACI-9-14-Fc (Fc fusion)
chain: B3 chain with Y35A, F36Y
B5: TACI-9-8-Fc (Fc fusion)
chain: B3 chain with T2L, Y35A
B6: TACI-9-7-Fc (Fc fusion)
chain: B3 chain with T2R, D18A
B7: TACI-9-9-Fc (Fc fusion)
chain: B3 chain with T2R, D18T, Y35R
B8: TACI-9-11-Fc (Fc fusion)
chain: B3 chain with T2L, R5S, K6E, K10E
B9: TACI-9-5-Fc (Fc fusion)
chain: B3 chain with T2L, K10E
B10: TACI-9-13-Fc (Fc fusion)
chain: B3 chain with F36Y
B11: TACI-9-10-Fc (Fc fusion)
chain: B3 chain with T2L, K6E, K10E
B12: TACI-9-12-Fc (Fc fusion)
chain: B3 chain with Y35A
B13: TACI-9-3-Fc (Fc fusion)
chain: B3 chain with T2L, K6E
B14: TACI-9-2-Fc (Fc fusion)
chain: B3 chain with T2L, R5S
B15: TACI-9-4-Fc (Fc fusion)
chain: B3 chain with T2L, K6Q
B16: TACI-9-15-Fc (Fc fusion)
chain: B3 chain with K6E, K10E, Y35A
B17: TACI-9-6-Fc (Fc fusion)
chain: B3 chain with T2R, D18T

Residue numbers refer to the chain shown, from its start.

The first assay has as its target T1, IFNAR1. Put plainly: cell-based or functional assay.
B1: the “IC50, inhibition of IFN-alpha-induced in vitro differentiation of B cells into plasma cells (CD27+ CD38+)” value was 12700 pM.

The next assay deals with T2, APRIL (Acro Biosystems, Cat: APL-H52D1). Briefly: ELISA, APRIL coated at 1 ug/mL, anti-human Fc-HRP, OD450. On the procedure:
The capabilities of B613301, B613302, and B613303, which are fusion proteins of anifrolumab and TACI-BCMA, to bind to BAFF and APRIL were assessed by ELISA as follows: [0548] BAFF (PeproTech, Cat: 310-13) or ARPIL (Acro Biosystems, Cat: APL-H52D1) was diluted to 1 μg/mL with PBS, and a 96-well plate (Costar, Cat: 3590) was coated with the dilution overnight at 4° C. The plate was washed with PBST and blocked with Blocking Buffer (PBST containing 1% BSA) at 37° C. for 1 h. The plate was tapped. The test antibodies were diluted with Blocking Buffer. Incubation was performed at 37° C. for 1.5 h. The plate was washed with PBST. An HRP-mouse anti-human Fc antibody (GenScript, Cat: A01854-200) was diluted with Blocking Buffer. Incubation was performed at 37° C. for 40 min. The plate was washed with PBST. 100 μL of TMB substrate solution (Biopanda, Cat: TMB-S-003) was added, and color development was performed at 37° C. for 3 min. 100 μL of ELISA stop solution (Solarbio, Cat: C1058) was added. OD450 was measured.
B2 displayed a half-maximal effective concentration (EC50) of 151 pM and an Emax of 2.33.

Another assay addresses T1, IFNAR1. Put plainly: cell-based or functional assay. The source holds these as a separate data set.
For B1, the “IC50 (nM), inhibition of the activity of type I interferons (IFN-beta, HEK-Blue IFN-alpha/beta reporter cells)” value is 1.53 nM.

For another assay, the target named is T3, BAFF (Sino biological, 10056-HNCH) (UniProt Q9Y275 134-285, biotinylated in the blocking ELISA (site not stated)).
T3 construct: also called BLyS
T3 sequence (Q9Y275 134-285 limits assumed): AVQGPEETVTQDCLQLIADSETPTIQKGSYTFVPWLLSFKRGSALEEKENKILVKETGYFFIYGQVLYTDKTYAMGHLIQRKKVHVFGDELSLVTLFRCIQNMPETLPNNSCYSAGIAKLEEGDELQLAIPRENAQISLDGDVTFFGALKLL
Put plainly: ELISA, BAFF coated at 1 ug/mL, anti-human IgG-HRP. On the procedure:
The BAFF binding activity of the TACI-Fc fusion proteins was assessed as follows: BAFF (Sino biological, 10056-HNCH) protein was diluted with a pH 7.4 PBS (BasalMedia, B320) buffer to 1 μg/mL, and the resulting dilution was added to a 96-well microplate (Corning, 3590) at 100 μL/well. The plate was incubated overnight at 4° C. After the liquid was discarded, 5% skim milk (BD, 232100), diluted with PBS, was added at 300 μL/well for blocking, and the plate was incubated at 37° C. for 2 h. After the blocking, the blocking solution was discarded, and the plate was washed 3 times with a PBST buffer (pH 7.4 PBS containing 0.10% tween-20). Serially diluted test antibody or fusion protein solutions were added at 100 μL/well, and the plate was incubated at 37° C. for 1 h. […] The plate was incubated at 37° C. for 1 h. After the plate was washed 3 times with PBST, the chromogenic substrate TMB (KPL, 5120-0077) was added at 100 μL/well. The plate was incubated at room temperature for 10-15 min, and 1 M H₂SO₄ was added at 50 μL/well to stop the reaction. The absorbance at 450 nm was measured using a microplate reader. Curves for the binding of the antibodies to the antigen were fitted using software, and EC₅₀ values were calculated.
The BAFF binding activity of the constructed TACI-Fc fusion proteins was assessed (see Example 2 for the experimental method), and the results are shown in Table 3: […]
The molecule B3 yielded an EC50 of 382 pM.

Turning to B4, the half-maximal effective concentration (EC50) worked out at 223 pM. Molecule B5 showed a concentration giving a half-maximal response (EC50) of 200 pM.

On to B6, for which a half-maximal effect (EC50) was put at 727 pM.

The molecule B7 yielded an EC50 of 937 pM. Same read-out and setting: in the case of B8 it was 195 pM; in that of B9, 146 pM; in that of B10, 433 pM.

In turn, B11 displayed an EC50 of 120 pM. Take B12: it took 122 pM to reach a half-maximal effect (EC50). In turn, B13 showed an EC50 of 265 pM. For the molecule B14, the midpoint of the response, the EC50, lay at 278 pM. Take B15: the half-maximal effective concentration (EC50) was 470 pM.

B16 registered an EC50 of 86.9 pM. On the same count and under the same terms, in the case of B17 it was 367 pM.
